Sequences and labels used below:
B1: F1*; the commonest letter at each place (parent)
chain: GAGACCGCAACTGAAAAGTTGTTATCACTTGTCGTAAGACACTTTGGATGGGTTGAAGTTCTGCACGTAGAAGCAAAAGGC

In the data set the parent is B1. The data set can be described thus: fraction ligated after 30 min (ligated reads / total reads); higher = more ligase activity. As to conditions: with F1*sub RNA substrate (template-directed ligation), 42 °C. The method, boiled down: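 The ligase ribozyme variants were produced by PCR amplification of oligo-pool templates, T7 transcription and purification on gel. Their ligated and unligated forms were gel-separated, then reverse transcribed with barcoded primers before MiSeq sequencing. Core bases were filtered at a quality of ≥20, and fraction ligated per variant was ligated reads over total reads.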
Turning to GAGACCGCAACTGAAAAGTTGTTATGACTTGTCGTAATACACTTTGGATGGGTTGAAGTTCTGCACGTAGAAGCAAAAGGC [C26G G38T], the fraction ligated worked out at 0.0811. As for GAGACCGCAACTGAAAAGTTGTTATGACTTGTCGTAAAACACTTTGGATGGGTTGAAGTTCTGCACGTAGAAGCAAAAGGC [C26G G38A], the figure is 0.446.

As for GAGACCGCAACTGAAAAGTTGTTATGACTTGTCGAAAGACACTTTGGATGGGTTGAAGTTCTGCACGTAGAAGCAAAAGGC [C26G T35A], the fraction ligated turned out to be 0.79. With GAGACCGCAACTGAAAAGTTGTTATGACTTGTCGGAAGACACTTTGGATGGGTTGAAGTTCTGCACGTAGAAGCAAAAGGC [C26G T35G] the figure was 0.784. As for GAGACCGCAACTGAAAAGTTGTTATGACTTGTCGCAAGACACTTTGGATGGGTTGAAGTTCTGCACGTAGAAGCAAAAGGC [C26G T35C], the figure is 0.772; as for GAGACCGCAACTGAAAAGTTGTTATTACTTGTCGTAAGACACTTTGGATGGGTTGGAGTTCTGCACGTAGAAGCAAAAGGC [C26T A56G], 0.768. In the case of GAGACCGCAACTGAAAAGTTGTTATTACTTGTCGTAAGACACTTTGGATGGGTTGCAGTTCTGCACGTAGAAGCAAAAGGC [C26T A56C], the fraction ligated stood at 0.29. As to GAGACCGCAACTGAAAAGTTGTTATTACTTGTCGTAAGACACTTTGGATGGGTTGTAGTTCTGCACGTAGAAGCAAAAGGC [C26T A56T], the fraction ligated was determined as 0.867. As for GAGACCGCAACTGAAAAGTTGTTATTACTTGTCGTAAGACACTTTGGATGGGTTGACGTTCTGCACGTAGAAGCAAAAGGC [C26T A57C], the figure is 0.84; as for GAGACCGCAACTGAAAAGTTGTTATGACTTGTCGTAAGACACGTTGGATGGGTTGAAGTTCTGCACGTAGAAGCAAAAGGC [C26G T43G], 0.479; as for GAGACCGCAACTGAAAAGTTGTTATGACTTGTCGTAAGACACCTTGGATGGGTTGAAGTTCTGCACGTAGAAGCAAAAGGC [C26G T43C], 0.689. With GAGACCGCAACTGAAAAGTTGTTATGACTTGTCGTAAGACACATTGGATGGGTTGAAGTTCTGCACGTAGAAGCAAAAGGC [C26G T43A] the figure was 0.783; with GAGACCGCAACTGAAAAGTTGTTATTACTTGTCGTAAGACACTTTGGATGGGTTGAAGTTCTGCACGTAGAAGCAAAAGGC [C26T], 0.836; with GAGACCGCAACTGAAAAGTTGTTATGACATGTCGTAAGACACTTTGGATGGGTTGAAGTTCTGCACGTAGAAGCAAAAGGC [C26G T29A], 0.789. On to GAGACCGCAACTGAAAAGTTGTTATGACGTGTCGTAAGACACTTTGGATGGGTTGAAGTTCTGCACGTAGAAGCAAAAGGC [C26G T29G], for which the fraction ligated came out at 0.778. With GAGACCGCAACTGAAAAGTTGTTATGACCTGTCGTAAGACACTTTGGATGGGTTGAAGTTCTGCACGTAGAAGCAAAAGGC [C26G T29C] the figure was 0.749; with GAGACCGCAACTGAAAAGTTGTTATGACTTGTCGTAAGACACTTTGAATGGGTTGAAGTTCTGCACGTAGAAGCAAAAGGC [C26G G47A], 0.8; with GAGACCGCAACTGAAAAGTTGTTATGACTTGTCGTAAGACACTTTGTATGGGTTGAAGTTCTGCACGTAGAAGCAAAAGGC [C26G G47T], 0.159.

As for GAGACCGCAACTGAAAAGTTGTTATGACTTGTCGTAAGACACTTTGCATGGGTTGAAGTTCTGCACGTAGAAGCAAAAGGC [C26G G47C], the fraction ligated came out at 0.404. As for GAGACCGCAACTGAAAAGTTGTTATGACTTGTCGTAAGACACTTTGGATGGGTTAAAGTTCTGCACGTAGAAGCAAAAGGC [C26G G55A], the fraction ligated is 0.169.

For the variant GAGACCGCAACTGAAAAGTTGTTATGACTTGTCGTAAGACACTTTGGATGGGTTCAAGTTCTGCACGTAGAAGCAAAAGGC [C26G G55C], the fraction ligated was determined as 0.00657. As for GAGACCGCAACTGAAAAGTTGTTATGACTTGTCGTAAGACACTTTGGATGGGTTTAAGTTCTGCACGTAGAAGCAAAAGGC [C26G G55T], the figure is 0.0355; as for GAGACCGCAACTGAAAAGTTGTTATGACTTATCGTAAGACACTTTGGATGGGTTGAAGTTCTGCACGTAGAAGCAAAAGGC [C26G G31A], 0.165; as for GAGACCGCAACTGAAAAGTTGTTATGACTTTTCGTAAGACACTTTGGATGGGTTGAAGTTCTGCACGTAGAAGCAAAAGGC [C26G G31T], 0.0375. With GAGACCGCAACTGAAAAGTTGTTATGACTTCTCGTAAGACACTTTGGATGGGTTGAAGTTCTGCACGTAGAAGCAAAAGGC [C26G G31C] the figure was 0.176; with GAGACCGCAACTGAAAAGTTGTTATGACTTGTCATAAGACACTTTGGATGGGTTGAAGTTCTGCACGTAGAAGCAAAAGGC [C26G G34A], 0.357; with GAGACCGCAACTGAAAAGTTGTTATGACTTGTCTTAAGACACTTTGGATGGGTTGAAGTTCTGCACGTAGAAGCAAAAGGC [C26G G34T], 0.718. Turning to GAGACCGCAACTGAAAAGTTGTTATGACTTGTCCTAAGACACTTTGGATGGGTTGAAGTTCTGCACGTAGAAGCAAAAGGC [C26G G34C], the fraction ligated is 0.371.

As for GAGACCGCAACTGAAAAGTTGTTATGACTTGTCGTAAGACACTTTGGAGGGGTTGAAGTTCTGCACGTAGAAGCAAAAGGC [C26G T49G], the fraction ligated came out at 0.371. As for GAGACCGCAACTGAAAAGTTGTTATGACTTGTCGTAAGACACTTTGGAAGGGTTGAAGTTCTGCACGTAGAAGCAAAAGGC [C26G T49A], the figure is 0.188; as for GAGACCGCAACTGAAAAGTTGTTATGACTTGTCGTAAGACACTTTGGACGGGTTGAAGTTCTGCACGTAGAAGCAAAAGGC [C26G T49C], 0.0764. Regarding GAGACCGCAACTGAAAAGTTGTTATGACTTGTCGTAAGACACTTTCGATGGGTTGAAGTTCTGCACGTAGAAGCAAAAGGC [C26G G46C], the fraction ligated was 0.719. For GAGACCGCAACTGAAAAGTTGTTATGACTTGTCGTAAGACACTTTAGATGGGTTGAAGTTCTGCACGTAGAAGCAAAAGGC [C26G G46A], the fraction ligated is 0.785.

For the variant GAGACCGCAACTGAAAAGTTGTTATGACTTGTCGTAAGACACTTTTGATGGGTTGAAGTTCTGCACGTAGAAGCAAAAGGC [C26G G46T], the fraction ligated stood at 0.417.
